Laboratory results reported in patent US10555963B2, “Klotho protein and related compounds for the treatment and diagnosis of cancer” (TEL HASHOMER MEDICAL RESEARCH INFRASTRUCTURE AND SERVICES …, priority 2007, dated 2020).

What was measured:
[1] = system: insulin pathway in HEK 293 cells; experiment: Insulin pathway activation after klotho protein over-expression; assay type: cell-based, human; details: insulin stimulation
[2] = system: human embryonic kidney (HEK) 293 cells; experiment: Colony formation assay after transfection with klotho protein expression vector; assay type: cell-based; details: transfected pcDNA3-HA-KL vs empty vector
Protocol: (§1) Two days following transfection with the indicated plasmids, G418 (750 μg/ml) was added to the culture media; and at day 14, the cells were stained using gentian violet. Untransfected cells were treated similarly, and all died within the 2 weeks of culture in the selection media. Quantification of the results was performed using AlphaImager 2000 (Alpha Innotech, CA).
(§2) The effect of klotho protein on growth of breast cancer cells was first assessed using colony formation assays. MCF-7, MDA-MB-231 and the non-cancerous human embryonic kidney (HEK) 293 cells were transfected with either a HA-tagged klotho protein expression vector (pcDNA3-HI-A-KL) or an empty vector (pcDNA3). Transfected cells were cultured in media containing G418 for two weeks and stained to determine the number of surviving colonies.

[3] = system: EGF pathway in MCF-7, MDA-MB-231 and HEK293 cells; experiment: EGF pathway (ERK1/2) after klotho protein over-expression; assay type: cell-based, human; details: starved 48 hours
Protocol: The effects of over-expression of klotho protein on the insulin-stimulated pathway were also examined. The EGF pathway, which plays an important role in the pathogenesis of breast cancer, is not modulated by klotho protein in either L6 or H411E cells (Kurosu et al., 2005). In order to evaluate the effects of klotho protein on this pathway in MCF-7, MDA-MB-231 and HEK293 breast cancer cells, these cells were transfected with either pcDNA3-HA-KL or an empty vector, starved for 48 hours, treated with EGF, and analyzed for the expression and activity of the ERK1/2, which are downstream targets of the EGF pathway.

[4] = system: MCF-7 and MDA-MB-231 clones; experiment: MTT proliferation assay of clones stably expressing klotho protein; assay type: cell-based, human; details: stable klotho protein-expressing clones vs pcDNA3 controls; 24-72 h
Protocol: The medium was aspirated, and the cells were dissolved by dimethyl sulfoxide (DMSO).
In order to assess the long-term effects of klotho protein expression, MCF-7 and MDA-MB-231 clones, which stably expressed either pcDNA3 or pcDNA3-HA-KL, were generated. Proliferation was evaluated by 3-(4,5-dimethylthiazol-2-yl)-2,5-diphenyltetrazolium bromide (MTT) assay after seeding for 24-72 h.

[5] = system: IGF-1 pathway in HEK 293 cells; experiment: IGF-1 pathway activation (Western blotting) after klotho protein over-expression; assay type: cell-based, human; details: IGF-1 12.5 nM, 15 min
Protocol: (§3) For breast cells, cells were harvested and lysed for total protein extraction in RIPA buffer (50 mM Tris-Cl pH 7.4, 150 mM NaCl, 1% NP-40, 0.25% Na-deoxycholate, 1 mM EDTA, 1 mM NaF) together with a protease inhibitor cocktail (Sigma). 50 μg protein extracts were loaded on 10% polyacrylamide gels, separated electrophoretically and blotted from the gel onto nitrocellulose membrane (Schleicher & Schuell Bioscience GmbH, Dassel, D E). The membranes were then immunoblotted with the indicated antibodies.
(§4) MDA-MB-231 cells, which express lower levels of these receptors, were also examined. HEK 293 cells, whose growth is not dependent on the IGF-1 pathway (El-Shewy et al., 2007) and is not inhibited by klotho protein, served as control.
(§5) In further experiments, MCF-7, MDA-MB-231 or HEK-293 cells were transfected with either pcDNA3-HA-KL or empty vector and treated with IGF-1 (12.5 nM, 15 min).

[6] = system: IGF-1 pathway in MDA-MB-231 cells; experiment: as above; assay type: cell-based, human; details: IGF-1 12.5 nM, 15 min, data not shown
Protocol: as §3, §4, §5

[7] = system: p53 levels in HEK 293; experiment: Immunoblot of p53 and PARP after klotho protein over-expression; assay type: cell-based, human
Protocol: as §3
(§6) In fibroblasts, klotho protein reduces senescence through down-regulation of p53 (de Oliveira, 2006). The effects of klotho protein on p53 levels in MCF-7 breast cancer cells and HEK 293 were therefore analyzed.

[8] = system: p53 levels in MCF-7 cells; experiment: as above; assay type: cell-based, human
Protocol: as §3, §6

[9] = system: insulin pathway in MCF-7 cells; experiment: Insulin pathway activation after klotho protein over-expression; assay type: cell-based, human; details: insulin stimulation
[10] = system: MCF-7; experiment: Colony formation assay after transfection with klotho protein expression vector; assay type: cell-based, human; details: transfected pcDNA3-HA-KL vs empty vector; G418 two weeks; p<0.0005
Protocol: as §1, §2

[11] = system: MDA-MB-231; experiment: as above; assay type: cell-based, human; details: transfected pcDNA3-HA-KL vs empty vector; G418 two weeks; p<0.0005
Protocol: as §1, §2

[12] = system: C/EBPβ in MCF-7 cells; experiment: C/EBPβ levels after klotho protein over-expression; assay type: cell-based, human; details: over-expression vs empty vector
Protocol: as §5
C/EBPβ is a down-stream target of the GSK3β pathway, which is suppressed following stimulation by IGF-1 (Li et al., 2007). […] The effects of over-expression of klotho protein on C/EBPβ levels were therefore analyzed.

[13] = system: IGF-1 pathway in MCF-7 cells; experiment: IGF-1 pathway activation (Western blotting) after klotho protein over-expression; assay type: cell-based, human; details: IGF-1 12.5 nM, 15 min
Protocol: as §3, §4
In order to elucidate klotho protein activity as an inhibitor of […] activation, MCF-7 cells were transfected with either pcDNA3-HA-KL or an empty vector, starved for 48 hours, treated with IGF-1 for the indicated times and doses, and analyzed using Western blotting for the level of expression and phosphorylation of IGF-1R.
as §5

[14] = target: T1, IGF-1R (Homo sapiens, UniProt P08069); experiment: Co-immunoprecipitation of HA-klotho protein and IGF-1R in MCF-7 cells; assay type: binding; details: MCF-7 cells expressing HA-klotho protein
T1 construct: endogenous in cells; host or cells: MCF-7 cells expressing HA-klotho (stably or transiently)
T1 sequence (P08069 31-1367): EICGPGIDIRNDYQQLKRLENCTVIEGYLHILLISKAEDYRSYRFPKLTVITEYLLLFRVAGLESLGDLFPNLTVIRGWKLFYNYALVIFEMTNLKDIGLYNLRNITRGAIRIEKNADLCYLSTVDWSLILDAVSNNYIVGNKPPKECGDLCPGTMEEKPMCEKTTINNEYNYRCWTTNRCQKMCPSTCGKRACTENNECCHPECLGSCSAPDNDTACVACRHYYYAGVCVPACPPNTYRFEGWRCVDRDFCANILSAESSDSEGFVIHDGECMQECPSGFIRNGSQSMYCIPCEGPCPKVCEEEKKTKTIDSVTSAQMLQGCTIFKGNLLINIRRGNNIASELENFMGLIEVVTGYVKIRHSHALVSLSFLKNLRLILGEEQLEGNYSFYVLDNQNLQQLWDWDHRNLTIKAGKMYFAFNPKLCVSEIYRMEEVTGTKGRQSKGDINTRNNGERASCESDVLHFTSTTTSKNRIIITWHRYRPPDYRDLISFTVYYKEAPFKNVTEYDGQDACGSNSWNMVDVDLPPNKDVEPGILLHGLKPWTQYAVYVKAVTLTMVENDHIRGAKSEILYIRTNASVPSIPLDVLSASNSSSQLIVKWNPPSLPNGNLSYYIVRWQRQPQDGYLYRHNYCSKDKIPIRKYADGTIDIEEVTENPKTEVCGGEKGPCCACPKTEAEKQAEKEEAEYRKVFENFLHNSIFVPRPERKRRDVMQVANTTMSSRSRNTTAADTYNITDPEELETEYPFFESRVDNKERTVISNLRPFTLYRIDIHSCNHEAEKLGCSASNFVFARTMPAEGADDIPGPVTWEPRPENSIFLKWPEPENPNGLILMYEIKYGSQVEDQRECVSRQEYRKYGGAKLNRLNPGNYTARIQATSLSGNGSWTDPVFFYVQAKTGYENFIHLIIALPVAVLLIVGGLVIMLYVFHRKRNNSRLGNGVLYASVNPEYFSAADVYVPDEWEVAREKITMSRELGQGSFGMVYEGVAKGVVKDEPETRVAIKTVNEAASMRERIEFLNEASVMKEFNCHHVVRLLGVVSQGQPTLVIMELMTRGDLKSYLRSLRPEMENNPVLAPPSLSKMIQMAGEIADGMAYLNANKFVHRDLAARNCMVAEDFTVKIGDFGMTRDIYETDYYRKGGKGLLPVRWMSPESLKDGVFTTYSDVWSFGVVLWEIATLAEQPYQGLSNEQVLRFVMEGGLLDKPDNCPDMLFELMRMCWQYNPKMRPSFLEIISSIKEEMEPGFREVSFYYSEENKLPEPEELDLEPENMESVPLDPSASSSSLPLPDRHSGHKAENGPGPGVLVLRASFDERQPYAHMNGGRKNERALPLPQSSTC
Protocol: Cells were harvested as for Western blot, and 400 μg protein lysate were incubated with IgG-Sepharose (Sigma) or protein A/G (Pierce, Rockford, Ill.) beads at 4° C. for 1 h to eliminate non-specifically bound proteins. These beads were subsequently used as a negative control. The supernatants were then incubated for 4 hours with either 2 μg anti-HA antibody (Sigma) or 2 μl of anti-IGF-1β-R (Santa Cruz Biotechnology) and IgG-Sepharose or protein A/G (Pierce, Rockford, Ill.), respectively, was added. Following an overnight incubation, the beads were washed 6 times in RIPA buffer and the immunoprecipitated materials were separated by SDS-PAGE and detected by Western blotting.
As klotho protein can bind FGFR and other membrane proteins, binding of klotho protein to the IGF-1R was examined. Co-immunoprecipitation assays were conducted using MCF-7 cells either stably (FIG. 10) or transiently (data not shown) expressing HA-klotho protein. HA-klotho protein was detected by Western blotting following immunoprecipitation of the IGF-1R, and the IGF-1R was detected following immunoprecipitation using HA-directed antibody.

interaction with the IGF-1 receptor (co-immunoprecipitation) [14]: interaction
B1: klotho protein: full length mouse Klotho (SEQ ID NO. 3) over-expressed in cells from HA-tagged expression vector pcDNA3-HA-KL (protein)
chain: MLARAPPRRPPRLVLLRLLLLHLLLLALRARCLSAEPGQGAQTWARFARAPAPEAAGLLHDTFPDGFLWAVGSAAYQTEGGWRQHGKGASIWDTFTHHSGAAPSDSPIVVAPSGAPSPPLSSTGDVASDSYNNVYRDTEGLRELGVTHYRFSISWARVLPNGTAGTPNREGLRYYRRLLERLRELGVQPVVTLYHWDLPQRLQDTYGGWANRALADHFRDYAELCFRHFGGQVKYWITIDNPYVVAWHGYATGRLAPGVRGSSRLGYLVAHNLLLAHAKVWHLYNTSFRPTQGGRVSIALSSHWINPRRMTDYNIRECQKSLDFVLGWFAKPIFIDGDYPESMKNNLSSLLPDFTESEKRLIRGTADFFALSFGPTLSFQLLDPNMKFRQLESPNLRQLLSWIDLEYNHPPIFIVENGWFVSGTTKRDDAKYMYYLKKFIMETLKAIRLDGVDVIGYTAWSLMDGFEWHRGYSIRRGLFYVDFLSQDKELLPKSSALFYQKLIEDNGFPPLPENQPLEGTFPCDFAWGVVDNYVQVDTTLSQFTDPNVYLWDVHHSKRLIKVDGVVAKKRKPYCVDFSAIRPQITLLREMRVTHFRFSLDWALILPLGNQTQVNHTVLHFYRCMISELVHANITPVVALWQPAAPHQGLPHALAKHGAWENPHTALAFADYANLCFKELGHWVNLWITMNEPNTRNMTYRAGHHLLRAHALAWHLYDDKFRAAQKGKISIALQADWIEPACPFSQNDKEVAERVLEFDIGWLAEPIFGSGDYPRVMRDWLNQKNNFLLPYFTEDEKKLVRGSFDFLAVSHYTTILVDWEKEDPMKYNDYLEVQEMTDITWLNSPSQVAVVPWGLRKVLNWLRFKYGDLPMYVTANGIDDDPHAEQDSLRIYYIKNYVNEALKAYVLDDINLCGYFAYSLSDRSAPKSGFYRYAANQFEPKPSMKHYRRIIDSNGFLGSGTLGRFCPEEYTVCTECGFFQTRKSLLVFISFLVFTFIISLALIFHYSKKGQRSYK
modifications: HA tag
activation of the insulin pathway [1]: not | effect on HEK 293 growth (colony assay) [2]: no effect | expression and phosphorylation of ERK1/2 after EGF [3]: affected neither the expression nor phosphorylation | proliferation slower than controls (MTT assay) [4]: up to 6 fold | effect on IGF-1 pathway phosphorylation [5]: only minor effects | effect on IGF-1 pathway phosphorylation [6]: Smaller effects | expression or cleavage of PARP [7]: No changes | p53 levels [7]: reduce | expression or cleavage of PARP [8]: No changes | p53 levels [8]: increase | activation of the insulin pathway [9]: inhibited | reduction of number and size of surviving colonies [10]: 84% | reduction of number and size of surviving colonies [11]: 72% | C/EBPβ levels [12]: significant up-regulation | phosphorylation of IGF-1R, IRS-1, AKT1, GSK3β, ERK-1 and -2 [13]: reduced phosphorylation
